Measured values from PMC10819093.

Key:
[1] = biological target: HIV-1 gp41 protein (surface plasmon resonance) (HIV-1); assay: SPR; BIAcore 3000; HIV-1 proteins amine coupled to CM-5 chips (50 µg/mL in 20 mM sodium acetate); serially diluted antibody injected at 30 µL/minute for about 100 s in HBS (10 mM HEPES, 150 mM NaCl, 3 mM EDTA)
[2] = biological target: HIV-1 gp120 protein (surface plasmon resonance) (HIV-1); assay: as above

Row | Substance | Kd [1] | Kd [2]
1 | trispecific antibody iMab + PRO140 + 10E8 | 6.12 nM | 
2 | trispecific antibody iMab + PRO140 + PGDM1400 |  | 0.46 nM
3 | trispecific antibody iMab + PRO140 + PGT121 |  | 0.59 nM
